Measured values taken from patent US7442375B2, “Compositions of beta-defensin inducing agents” (Case Western Reserve University, priority 2002, dated 2008).

Columns and labels:
CXCR4 = CXCR4 (Homo sapiens, UniProt P61073); experiment: Confocal microscopy of co-receptor surface expression on CEM X4/R5 cells; type: cell-based; design: endogenous in cells; details: 20 μg/ml, 3 h
Experimental: (§1) CEM X4/R5 cells were grown in RPMI-1640 medium containing 5% FBS and 400 μg/ml G418. Cells were collected, washed twice with PBS, resuspended in RPMI with 0.5% FBS or supplemented with 20 μg/ml recombinant hBD-2 or -3, and incubated at 37° C., 5% CO2 for 3 h. A second aliquot of cells, after incubation with hBD, was treated with FACS/Perm (PharMingen) at room temperature for 10 min and then washed three times with PBS. A third aliquot of cells was fixed in 1% paraformaldehyde on ice for 30 min, washed three times with PBS, and then incubated with 20 μg/ml hBD-2 or -3. Cells were stained with PE-labeled CXCR4 or CCR5 (PharMingen), or with primary goat anti-hBD-2 antibodies (Cell Sciences, Norwood, Mass., USA), or with rabbit anti-hBD-3 antibodies (Orbingen, San Diego, Calif., USA) at room temperature for 90 min, followed by washing three times with PBS. Fluorescein isothiocyanate-labeled rabbit anti-goat IgG (Jackson ImmunoResearch, West Grove, Pa., USA) for detection of hBD-2, or goat anti-rabbit IgG (Sigma) for detection of hBD-3, were added, respectively, at room temperature and incubated for 90 min. […] All samples were observed using a dual scanning confocal microscope system (Zeiss LSM 510, Oberkochem, Germany) and analyzed with the Zeiss LSM 5 Image Browser. […]

CCR5 = CCR5 (Homo sapiens, UniProt P51681); experiment: as above; type: cell-based; design: endogenous in cells; details: 20 μg/ml, 3 h
Chain of CCR5 (P51681 whole entry): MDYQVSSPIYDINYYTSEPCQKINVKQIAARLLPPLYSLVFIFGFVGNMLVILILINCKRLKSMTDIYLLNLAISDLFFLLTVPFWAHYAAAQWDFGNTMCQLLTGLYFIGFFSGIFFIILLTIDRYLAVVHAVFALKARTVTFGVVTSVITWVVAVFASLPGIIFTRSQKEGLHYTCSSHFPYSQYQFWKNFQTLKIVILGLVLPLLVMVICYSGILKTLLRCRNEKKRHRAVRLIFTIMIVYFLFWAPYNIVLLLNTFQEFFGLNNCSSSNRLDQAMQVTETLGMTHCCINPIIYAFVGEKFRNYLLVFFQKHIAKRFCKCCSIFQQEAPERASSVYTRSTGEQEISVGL
Experimental: as §1

Chain of CXCR4 (P61073 whole entry): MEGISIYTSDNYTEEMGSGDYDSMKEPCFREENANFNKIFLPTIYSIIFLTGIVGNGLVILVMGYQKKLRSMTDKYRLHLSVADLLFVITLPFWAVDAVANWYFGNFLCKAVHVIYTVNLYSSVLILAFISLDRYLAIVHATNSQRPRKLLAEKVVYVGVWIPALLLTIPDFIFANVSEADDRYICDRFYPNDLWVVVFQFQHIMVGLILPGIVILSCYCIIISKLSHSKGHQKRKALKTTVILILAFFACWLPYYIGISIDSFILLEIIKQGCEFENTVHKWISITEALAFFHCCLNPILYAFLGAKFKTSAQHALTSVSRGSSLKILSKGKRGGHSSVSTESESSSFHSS

B1: hBD-3: Recombinant human β-defensin 3 produced using an hBD-3-His tag fusion construct cloned into pET-30c; exemplary sequence SEQ ID NO:15 (protein, listed as Homo sapiens)
chain: MRIHYLLFALLFLFLVPVPGHGGIINTLQKYYCRVRGGRCAVLSCLPKEEQIGKCSTRGRKCCRRKK
modifications: not fully specified (C-terminus); ends and bridges not checked
Question: How did the “surface expression of CXCR4” value (CXCR4) turn out when B1 was run?
Answer: dramatically decreased

Question: What about the “surface expression of CCR5” value (CCR5) of the same molecule?
Answer: not
